B1: FAM9B (parent)
chain: EDLTAKRKRMKMDKTCSKTKNKSK
B2: CDC34 (parent)
chain: GGYFKARLKFPIDYPYSPPAFRFL

Variants of: B1
Assay: protein stability index of a GFP-peptide fusion (GPS, HEK-293T) (PSI 1-6); higher = more stable
Settings: c terminus: a fixed tail appended
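Also: lentivirally expressed fusions sorted by FACS into six bins by GFP to DsRed ratio, PSI derived from sequencing read proportions per bin multiplied by bin number.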

Variant | protein stability index
K11I | 4.47
K11H | 5.38
K11P | 5.16
K11G | 5.19
K11M | 4.21
K11C | 4.9
K11S | 4.79
K11R | 4.97
K11D | 5.22
K11L | 4.62
K11E | 5.29
K11Y | 4.26
K11F | 5.02
K11Q | 5.02
K11V | 5.08
K11N | 4.45
K11T | 4.49
K11A | 5.04
K11W | 4.83
T4H | 5.29
T4R | 4.64
T4F | 4.72
T4M | 4.45
T4A | 5.25
T4E | 5
T4C | 4.52

Variant | protein stability index
T4Q | 4.7
T4S | 4.74
T4L | 4.6
T4K | 5.54
T4I | 4.58
T4Y | 4.21
T4V | 5.02
T4W | 4.38
T4P | 4.96
T4D | 5.5
T4N | 4.8
T4G | 5.14
D2I | 4.16
D2A | 5.42
D2H | 5.01
D2V | 4.86
D2G | 5.21
D2S | 4.63
D2W | 3.49
D2M | 4.44
D2F | 3.65
D2Y | 3.69
D2Q | 5.04
D2N | 4.63
D2E | 5.3
D2C | 4.11

Variant | protein stability index
D2K | 4.9
D2T | 4.92
D2L | 4.08
D2R | 4.43
D2P | 5.51
E1F | 4.53
E1S | 5.16
E1P | 4.9
E1L | 4.38
E1N | 5.29
E1W | 3.89
E1V | 4.96
E1H | 4.87
E1T | 4.91
E1C | 3.08
E1M | 4.15
E1G | 4.86
E1A | 4.77
E1I | 4.08
E1Q | 4.99
E1K | 4.89
E1D | 5.32
E1R | 4.64
E1Y | 3.72
T15N | 5.33
T15L | 5.07

Variant | protein stability index
T15F | 4.8
T15P | 5
T15E | 5.2
T15G | 4.55
T15D | 4.91
T15W | 4.78
T15H | 4.6
T15V | 4.9
T15C | 5.36
T15A | 5
T15Q | 5.42
T15S | 4.24
T15M | 5.11
T15Y | 5
T15I | 5.12
T15K | 4.48
T15R | 4.88
L3A | 4.91
L3G | 5.66
L3Q | 5.51
L3R | 5.17
L3W | 4.6
L3M | 5.13
L3P | 5.39
L3Y | 5.23
L3V | 5.63

Variant | protein stability index
L3T | 5.33
L3S | 4.99
L3E | 5.77
L3H | 5.43
L3C | 5.09
L3N | 5.15
L3D | 5.5
L3K | 5.4
L3F | 4.98
M12D | 5.18
M12C | 5.06
M12I | 5.03
M12V | 4.45
M12L | 4.79
M12A | 5.02
M12T | 5.54
M12Y | 5.16
M12W | 3.86
M12H | 5.44
M12K | 4.79
M12E | 5.78
M12N | 4.67
M12F | 4.95
M12P | 5.61
M12G | 5.76
M12R | 4.72

Variant | protein stability index
M12Q | 5.03
M12S | 5.9
R7H | 4.95
R7D | 5.41
R7N | 4.93
R7W | 4.33
R7Q | 5.32
R7F | 4.69
R7E | 5.45
R7S | 5.3
R7Y | 5.11
R7G | 5.54
R7V | 4.87
R7P | 5.27
R7M | 4.75
R7C | 5.26
R7A | 5.09
R7K | 5.16
R7L | 4.87
R7I | 4.82
R7T | 5.46
D13N | 5.3
D13T | 5.01
D13Q | 5.41
D13H | 4.64
D13P | 4.66

Variant | protein stability index
D13F | 4.26
D13C | 4.33
D13R | 4.49
D13E | 5.57
D13I | 4.89
D13S | 4.89
D13V | 5.36
D13W | 4.8
D13L | 4.77
D13G | 5.48
D13M | 3.91
D13K | 4.7
D13A | 4.99
D13Y | 5.14
A5M | 5.2
A5K | 4.15
A5H | 5.05
A5S | 5.5
A5W | 5.3
A5R | 5.23
A5N | 4.33
A5Q | 4.71
A5P | 4.92
A5L | 5.37
A5D | 5.08
A5C | 4.05

Variant | protein stability index
A5Y | 5.13
A5G | 5.47
A5T | 4.51
A5F | 4.42
K8I | 4.4
K8Y | 4.33
K8S | 5.39
K8W | 4.77
K8P | 5.5
K8N | 5.53
K8F | 4.58
K8L | 4.38
K8A | 4.94
K8T | 4.97
K8C | 5.09
K8R | 5.15
K8Q | 3.39
K8D | 5.29
K8H | 4.97
K8G | 4.75
K8E | 4.99
K8V | 5.13
M10Y | 4.94
M10K | 5.31
M10V | 5.12
M10N | 4.23

Variant | protein stability index
M10C | 5.02
M10A | 4.25
M10H | 5.43
M10D | 5.29
M10T | 5.35
M10W | 4.96
M10G | 4.71
M10E | 5.43
M10P | 4.75
M10Q | 5.28
M10L | 5.34
M10S | 5.43
M10R | 5.64
M10I | 5.18
M10F | 4.88
R9A | 5.33
R9E | 5.12
R9V | 5.09
R9K | 5.33
R9P | 4.4
R9M | 5.07
R9D | 5.64
R9G | 4.9
R9W | 4.48
R9S | 5.47
R9H | 4.49

Variant | protein stability index
R9C | 5.05
R9I | 4.08
R9F | 5.14
R9Q | 5.58
R9N | 5.38
R9T | 5.11
R9L | 4.04
R9Y | 5.29
K6V | 4.65
K6G | 5.69
K6P | 5.59
K6C | 4.78
K6F | 4.42
K6T | 4.68
K6E | 5.7
K6W | 4.29
K6D | 5.33
K6R | 5.33
K6M | 4.67
K6H | 5.37
K6Q | 5.12
K6N | 4.85
K6S | 5.26
K6Y | 5.19
K6L | 4.85
K6A | 4.87

Variant | protein stability index
K6I | 5.1
K14C | 4.41
K14G | 5.19
K14V | 5.07
K14A | 4.99
K14D | 5.14
K14Y | 5.22
K14T | 5.03
K14I | 3.76
K14S | 5.03
K14E | 5.07
K14M | 5.45
K14P | 5.37
K14W | 4.73
K14H | 5.36
K14N | 5.51
K14R | 5.37
K14F | 4.48
K14Q | 4.99
K14L | 4.83

Variants of: B2
Assay: as above
Settings: c terminus: a fixed tail appended

Variant | protein stability index
L24E | 1.76
L24N | 3.21
L24W | 2.05
L24G | 2.44
L24D | 2.33
L24A | 3.55
L24M | 2.76
L24V | 3.43
L24Q | 2.95
L24Y | 2.4
L24T | 3.35
L24R | 3.94
L24K | 3.77
L24F | 2.89
R22S | 2.8
R22M | 3
R22V | 4.1
R22K | 2.74
R22P | 2.62
R22Y | 2.7
R22I | 2.74
R22Q | 2.65
R22F | 3.63
R22L | 2.97
R22N | 2.73
R22H | 2.87
R22E | 2.58

Variant | protein stability index
R22G | 2.78
R22D | 3.74
R22A | 4.99
R22C | 4.57
R22T | 2.52
F23G | 1.09
F23Y | 1.26
F23A | 2.82
F23S | 2.95
F23M | 2.48
F23E | 2.19
F23P | 3.15
F23H | 4.27
F23N | 2.95
F23D | 2.71
F23W | 1.43
F23I | 2.08
F23V | 3.6
F23Q | 1.48
F23L | 1.54
F23K | 2.8
F23R | 2.42
F23T | 2.74
F21T | 2.67
F21W | 3.02
F21V | 3.33
F21Y | 1.53
